This data set concerns F1*sub RNA substrate (template-directed ligation). Nature of the data set: fraction ligated after 30 min (ligated reads / total reads); higher = more ligase activity; sequences stand for … in GAGACCGCAACTGAAAAGTTGT…AGTTCTGCACGTAGAAGCAAAAGGC
As to conditions: 42 °C. In a few lines:
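Oligo-pool templates underwent PCR amplification, T7 transcription and gel purification to yield ribozyme variants. Gel-separated ligated and unligated bands were converted to complementary DNA with barcoded primers and sequenced on a MiSeq, keeping core bases of quality ≥20. The ratio of ligated reads to total reads gave the fraction ligated for every variant.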
Regarding “TATCACTGTCGTAACACTTTGGATGGGTTGA [3d1386]”, the fraction ligated turned out to be 0.826.

“TATCACTTCGTAAGACACTTGGATGGGTTGA [3d1320]” had a fraction ligated of 0.796. On to “TATCACTTGTGTAGACATTTGGATGGGTTGA [3d1736]”, for which the fraction ligated amounted to 0.883.

Consider “TATCACTTGTCGTAGACATTTGGATGGGTTGA [2d226]”, for which the fraction ligated came out at 0.842. In turn, TATACTTGTCGTAAGACACTTTGGTGGGTTG [3d941] yielded a fraction ligated of 0.0139. Next, “TATCATGTGTAAGACACTTTGGATGGGTTGA [3d1124]”: 0.84. On to TACACTTGTCGTAAGACACTTTGGTGGGTTGA [2d64], for which the fraction ligated stood at 0.153.

“TATCACTTGTCGTAGACATTTGGAGGGTTGA [3d2031]”: the fraction ligated was 0.0197. In the case of ATCACTTGTCGTAAGACACTTTGGATGGTTA [3d273] it was 0.68; in that of TATACTTGTCAAGACACTTTGGATGGGTTGA [3d843], 0.705. Turning to TTCACTTTCGTAAGACACTTTGGAGGGTTGA [3d367], the fraction ligated turned out to be 0.0281. “TATCCTTGTCTAAGACACTTTGGATGGTTGA [3d1026]”: the fraction ligated was found to be 0.047. Next, ATCATTGCGTAAGACACTTTGGATGGGTTGA [3d88]: 0.755. “TATCACTTGTCGTAAGACACTTTAGGGTTGA [3d2256]” displayed a fraction ligated of 0.0176.

In the case of “TATCACTTGTCGTAAGACATTTGGAGGGTTGA [2d272]”, the fraction ligated came out at 0.015.

Turning to “TATCACTTGTCGTAAGACCTTTGAGGGTTGA [3d2192]”, the fraction ligated came out at 0.0254. Turning to TATACTTGTGTAAGACACTTTGGATGGGTTA [3d841], the fraction ligated worked out at 0.134. Consider TATACTTGTCGTAAGAACTTTGGATGGGTTG [3d910], for which the fraction ligated worked out at 0.724.

As to TATACTTGTCGTGACACTTTGGATGGGTTGA [3d870], the fraction ligated is 0.708. In turn, “TATCACTTTCGTAGACACTTTGGATGGGTTG [3d1518]” returned a fraction ligated of 0.786. Sequence ATCACTTGTCGTAAGACACTTTGGTGGGTTA [3d268] had a fraction ligated of 0.00829. Next, TCACTTGTCGAAGACACTTTGGATGGGTTGA [3d10]: 0.748; TTCACTTGTCGTAAGACCTTTGGATGGGTTGA [2d38]: 0.793.

The sequence TATCCTTGCGTAAGACATTTGGATGGGTTGA [3d992] had a fraction ligated of 0.792.

TATACTTGTCGAAGAACTTTGGATGGGTTGA [3d860] displayed a fraction ligated of 0.748. ATCACTTGTCGTAGACACTTTGGATGGTTGA [3d208]: the fraction ligated stood at 0.766. Next, “TATCACTTGTCTAAGACACTTGGATGGGTTG [3d1884]”: 0.781; TTCACTTGTGTAAGACATTTGGATGGGTTGA [3d394]: 0.778; TACACTTTCGTAAGACACTTTGATGGGTTGA [3d595]: 0.0271. Regarding TATACTTGTCGTAAGCACTTTGGATGGGTTGA [2d79], the fraction ligated is 0.778. The sequence “TATCACTTGTCTAAGACACTTTGATGGGTTA [3d1889]” gave a fraction ligated of 0.162.

Regarding TTCACTTGTCGTAAGACACTTGGTGGGTTGA [3d486], the fraction ligated worked out at 0.00989. The sequence “TATCATTGTCGTAAGACACTTGGATGGGTTG [3d1275]” showed a fraction ligated of 0.8. The sequence “TATCACTTGCGTAAGACACTTTGGATGGGTTA [2d177]” showed a fraction ligated of 0.822. The sequence “TATCACTTGTCGTAGACCTTTGGATGGGTTGA [2d225]” showed a fraction ligated of 0.814. On to “TATCATTGTCGTAAGCACTTTGGATGGGTTA [3d1245]”, for which the fraction ligated worked out at 0.474. “GTATCACTTGTCGTAAGACACTTTGGATGGTTGA [s35]”: the fraction ligated was 0.242. As for “TATCACTGTCGTAAGCATTTGGATGGGTTGA [3d1410]”, the fraction ligated was found to be 0.797. “TATCACTTGTCTAGAACTTTGGATGGGTTGA [3d1826]” gave a fraction ligated of 0.796. On to TACACTTGCGTAGACACTTTGGATGGGTTGA [3d604], for which the fraction ligated was 0.0967. Next, “TATCACTTGTCGTAAGACACTTTGTGGGTTGA [2d284]”: 0.0141. In turn, “TATCATTGTCGAAGACACTTTGGATGGTTGA [3d1211]” showed a fraction ligated of 0.21. As to TATCCTTGTCGTAGACACTTTGGATGGGTTGA [2d96], the fraction ligated was found to be 0.79. Consider “TATCACTGTCTAAGACACTTTGGATGGGTTA [3d1370]”, for which the fraction ligated came to 0.762. In the case of “TATCATTGCGTAAGACACTTTGGAGGGTTGA [3d1168]”, the fraction ligated was 0.0323. As to “TATCACTTGTCGAAACACTTTGGATGGTTGA [3d1922]”, the fraction ligated is 0.0984.

With “TATCACTTGTCTAGACCTTTGGATGGGTTGA [3d1827]”, the fraction ligated was 0.737. With “TATCACTTTCGTAGACACTTTGGAGGGTTGA [3d1515]”, the fraction ligated worked out at 0.0412.

The sequence “TATCACTTGTCAAGACACTTGGATGGGTTGA [3d1816]” yielded a fraction ligated of 0.76. Next, TATACTTGTGAAGACACTTTGGATGGGTTGA [3d829]: 0.756. Next, “TATCACTTGTCGAAGACACTTTGGAGGGTTG [3d1976]”: 0.08; “TATCCTTGTCGTAACACTTTGGATGGGTTGA [3d1043]”: 0.81. As to “TATCACTTGTGTAAGACACTTGATGGGTTGA [3d1787]”, the fraction ligated was determined as 0.8. For “TATCACTTTCGTAAGACCTTTGATGGGTTGA [3d1548]”, the fraction ligated came to 0.786. Next, ATCACTTGTCGTAGACACTTGGATGGGTTGA [3d204]: 0.74. The sequence “TATCCTTGTCGTAAGACCTTTGGATGGGTTA [3d1088]” had a fraction ligated of 0.347.

Take “TATCACTTGTCGTAAGACATTTGGTGGGTTGA [2d271]”: the fraction ligated worked out at 0.0311.

For TATACTTGTCGTAAGACACTTTGGATGGGTTG [2d89], the fraction ligated was 0.733. In turn, ATCCTTGTCGTAAGACACTTTGGTGGGTTGA [3d81] registered a fraction ligated of 0.169. The sequence “TATCACTTGTCGTAAACACTTTGAGGGTTGA [3d2090]” displayed a fraction ligated of 0.0504. Next, “TATCACTGTCGAAGACACTTTGGATGGGTTGA [2d133]”: 0.835; “TATCACTTGTCGAAGACACTGGATGGGTTGA [3d1957]”: 0.767; TTCACTTGGTAAGACACTTTGGATGGGTTGA [3d371]: 0.708. “TATCATTGTCGTAAGAATTTGGATGGGTTGA [3d1247]”: the fraction ligated came out at 0.796. In turn, TTCACTTTCGTAAGACACTTTGGATGGGTTA [3d369] returned a fraction ligated of 0.0133. Consider “TATCACTTGTCAAGACACTTTGGATGGGTTG [3d1822]”, for which the fraction ligated was found to be 0.777. Regarding TATACTTGTGTAAGACCTTTGGATGGGTTGA [3d834], the fraction ligated was found to be 0.721.

The sequence TACACTTGCGTAAGACACTTTGGATGGGTTGA [2d52] registered a fraction ligated of 0.115.

The sequence “TATCACTTGCGTAAGACACTTTGGATGGGTTG [2d178]” came in with a fraction ligated of 0.825. As to ATCACTTGTCGAAGACACTTTGGATGGGTTGA [2d11], the fraction ligated turned out to be 0.777. With “TATCACTTGTCGTAAAATTTGGATGGGTTGA [3d2059]”, the fraction ligated was 0.803. In the case of “TATCACTGTCGTAAGCACTTTGATGGGTTGA [3d1412]” it was 0.686; in that of “TATCACTTGTGTAAGACACTTTGGATGGGTTG [2d193]”, 0.845. With “TATCACTTGTGTAAACACTTTGGAGGGTTGA [3d1750]”, the fraction ligated was found to be 0.0713. In the case of TACACTTGTCGTAAGACATTTGGATGGGTTG [3d713] it was 0.324. ATCATTGTCGTAAGACACTTTGGATGGGTTGA [2d5] gave a fraction ligated of 0.759. Consider “TATCACTTGTCGTAAGCCTTTGGTGGGTTGA [3d2116]”, for which the fraction ligated was 0.243.

TATACTTGTCGTAAGACATTTGGATGGGTTGA [2d82] registered a fraction ligated of 0.751. In the case of TACACTTGTCGTAAACACTTTGATGGGTTGA [3d676] it was 0.0132.

For “TATCACTTGTCGTAGACACTTTGAGGGTTGA [3d2044]”, the fraction ligated came to 0.0374.

As to “TATCACTGTCGTAAGACATTTGGATGGTTGA [3d1437]”, the fraction ligated was determined as 0.606. In the case of “TATCCTTGTCGAAGACACTTTGGATGGGTTG [3d1041]” it was 0.783; in that of TATACTGTCTAAGACACTTTGGATGGGTTGA [3d781], 0.651; in that of “TATCACTTTCGTAAGACACTTTGATGGGTTA [3d1572]”, 0.0837. In turn, “TATCATTGCGTAAGACACTTTGGATGGGTTA [3d1170]” displayed a fraction ligated of 0.447. The sequence “TATCACTTGTTAAGACCTTTGGATGGGTTGA [3d1709]” registered a fraction ligated of 0.785.

For the sequence “TATCACTTGTGTAGACACTTTGGTGGGTTGA [3d1739]”, the fraction ligated came out at 0.105. “TATCACTTGTGTAAGACATTTGGAGGGTTGA [3d1782]”: the fraction ligated was 0.0398. The sequence “TATCACTTTCGTAAGACACTTTGGATGGGTT [3d1583]” showed a fraction ligated of 0.22. “TATCACTTGTCGAAGACACTTGGTGGGTTGA [3d1959]” registered a fraction ligated of 0.119. TATACTTTCGTAAGACACTTTGATGGGTTGA [3d806] displayed a fraction ligated of 0.105. On to TATACTTGTCGTAAGCACTTGGATGGGTTGA [3d896], for which the fraction ligated was 0.645. “TATCACTTGTCGTAAGACCTTTGGTGGTTGA [3d2197]” gave a fraction ligated of 0.0467. Next, “TATCACTTGTCGTAAGACCTTTATGGGTTGA [3d2190]”: 0.11. Turning to “TATCACTGTCGTAAGAACTTTGGAGGGTTGA [3d1422]”, the fraction ligated is 0.0317. In turn, ACATTGTCGTAAGACACTTTGGATGGGTTGA [3d26] yielded a fraction ligated of 0.0699.

With “TATCATTGTCGTAAGACCTTTGGAGGGTTGA [3d1258]”, the fraction ligated turned out to be 0.104.

These data come from the supplement of paper PMC6755084.
